We go through five molecules from patent publication US20260028412A1 (PRECISION BIOSCIENCES, published 2026).

Assay [1] deals with human BCMA expressed on the cell surface (human) (UniProt Q02223). In words: flow cytometry on K562-BCMA cells, goat anti-human IgG secondary.
Assay [2] concerns the target His-tagged BCMA protein (Homo sapiens (Human)) (UniProt Q02223). In words: biolayer interferometry (Octet RED96), His-tagged BCMA loaded on Anti-Penta-HIS (HIS1K) sensors, antibody as analyte at 138.9 nM. (In general: BLI is a label-free optical method that tracks binding on a fibre tip over time.)
Assay [3] addresses human BCMA expressed on the cell surface (human) (UniProt Q02223). In words: flow cytometry on K562-BCMA cells, secondary antibody only. For orientation: In flow cytometry, cells or beads pass a laser one at a time.
For assay [4], the target named is His-tagged BCMA protein (Homo sapiens (Human)) (UniProt Q02223). In words: Octet RED96, His-tagged BCMA on anti-His biosensor tips, antibody as analyte.
The target of assay [5] is T1, His-tagged BCMA protein (Homo sapiens (Human), UniProt Q02223 1-54).
T1 construct: not shown: His tag
T1 sequence: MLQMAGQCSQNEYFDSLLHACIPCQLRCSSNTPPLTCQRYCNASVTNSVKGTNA
Described as above. As for the experimental part:
(§1) Four full length antibodies were analyzed using the OctetRED96 technology for assessment of binding affinity by measurement of the equilibrium dissociation constant (KD). Within the group of four were the two candidate anti-BCMA antibodies (BCMA-3L/3H and BCMA-3L/20H), the positive anti-BCMA control described in Example 1, and the anti-CD19 negative control described in Example 1. In the experiment, His-tagged BCMA protein was loaded onto anti-His antibody coated biosensor tips and supplied antibodies were utilized as analytes to measure KD.

Assay [6] has as its target T1, His-tagged BCMA protein. In words: biolayer interferometry (Octet RED96), His-tagged BCMA loaded on Anti-Penta-HIS (HIS1K) sensors, antibody as analyte at 138.9 nM. As for the experimental part:
as §1

“full-length human IgG4 antibody expressing the anti-CD19 targeting moiety FMC63”: the % positive cells in assay [1] was found to be 1.2%. The molecule further showed a Response in assay [2] of 0.0032.

goat anti-human IgG secondary antibody: in assay [3], the % positive cells came to 0.18%.

In assay [1], “positive control IgG4 anti-BCMA antibody (comprising the VH and VL regions of the C11D5.3 antibody described in WO 2010/104949)” had a % positive cells of 10.1%. Besides, in assay [4], the equilibrium dissociation constant (Kd) was below 0.001 nM. Moreover, in assay [2], the Response was determined as 2.31, the off-rate constant (koff) was below 1e-07 s⁻¹ and the kon is 236000 M⁻¹ s⁻¹.

B1: BCMA-3L/3H full-length IgG4 antibody (antibody, V domains shown)
VH: QIQLVQSGPELKKPGETVKISCKASGYTFTHYSINWVKRAPGKGLKWMGWINTESGEPTYAYDFKGRFAFSLETSASTAYLQINNLKYEDTATYFCALDYESAMDYWGQGTSVTVSS
VL: DIVLTQSPPSLAMSLGKRATISCRASESVTIPGQHLINWYQQKPGQPPKLLIQRASNVESGVPARFSGSGSRTDFTLTIDPVEEDDVAVYYCLQTRGIPRTFGGGTKLEIKR
notes: also called BCMA-3L/3H full length antibody
B1: the Kd in assay [5] was found to be 1.38 nM. In assay [6], this molecule had an off-rate (koff) of 0.000333 s⁻¹ and a kon of 242000 M⁻¹ s⁻¹.

B2: BCMA-3L/20H full-length IgG4 antibody (antibody, V domains shown)
VH: QIQLVQSGPELKKPGETVKISCKASGYTFTHYSINWVKRAPGKGLKWMGWINTETRESTYAYDFKGRFAFSLETSASTAYLQINNLKYEDTATYFCALDYKQAMDYWGQGTSVTVSS
VL: DIVLTQSPPSLAMSLGKRATISCRASESVTIPGQHLINWYQQKPGQPPKLLIQRASNVESGVPARFSGSGSRTDFTLTIDPVEEDDVAVYYCLQTRGIPRTFGGGTKLEIKR
notes: also called BCMA-3L/20H full length antibody; BCMA-3L/20H antibody clone
On to B2, for which the Kd in assay [5] was found to be 2.14 nM. In assay [6], this molecule registered a koff of 0.000458 s⁻¹ and an on-rate constant (kon) of 214000 M⁻¹ s⁻¹.

As a reminder, the Kd is a measure of binding affinity in units of concentration. A higher Kd goes with weaker binding. A word on the koff: it is the first-order rate constant of dissociation. Higher therefore signals fast dissociation. What is called kon is a measure of how fast the partners come together.
